What was measured:
[1] = target: T1, recombinant single-tagged VWF-A2 peptide
T1 chain: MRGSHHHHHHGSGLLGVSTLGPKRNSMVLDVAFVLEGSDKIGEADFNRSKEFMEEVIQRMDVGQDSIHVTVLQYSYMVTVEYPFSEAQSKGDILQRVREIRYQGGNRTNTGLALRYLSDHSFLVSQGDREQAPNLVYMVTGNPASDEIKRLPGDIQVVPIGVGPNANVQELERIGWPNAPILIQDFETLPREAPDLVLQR

[2] = target: T2, recombinant double-tagged VWF-A2 peptide
T2 chain: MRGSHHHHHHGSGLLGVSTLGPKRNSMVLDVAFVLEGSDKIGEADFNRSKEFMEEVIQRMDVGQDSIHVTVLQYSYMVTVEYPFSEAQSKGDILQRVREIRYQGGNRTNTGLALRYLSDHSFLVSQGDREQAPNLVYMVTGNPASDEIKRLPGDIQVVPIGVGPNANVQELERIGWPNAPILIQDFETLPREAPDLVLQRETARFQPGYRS

B1: ADAMTS-13 (protein)
chain: AAGGILHLELLVAVGPDVFQAHQEDTERYVLTNLNIGAELLRDPSLGAQFRVHLVKMVILTEPEGAPNITANLTSSLLSVCGWSQTINPEDDTDPGHADLVLYITRFDLELPDGNRQVRGVTQLGGACSPTWSCLITEDTGFDLGVTIAHEIGHSFGLEHDGAPGSGCGPSGHVMASDGAAPRAGLAWSPCSRRQLLSLLSAGRARCVWDPPRPQPGSAGHPPDAQPGLYYSANEQCRVAFGPKAVACTFAREHLDMCQALSCHTDPLDQSSCSRLLVPLLDGTECGVEKWCSKGRCRSLVELTPIAAVHGRWSSWGPRSPCSRSCGGGVVTRRRQCNNPRPAFGGRACVGADLQAEMCNTQACEKTQLEFMSQQCARTDGQPLRSSPGGASFYHWGAAVPHSQGDALCRHMCRAIGESFIMKRGDSFLDGTRCMPSGPREDGTLSLCVSGSCRTFGCDGRMDSQQVWDRCQVCGGDNSTCSPRKGSFTAGRAREYVTFLTVTPNLTSVYIANHRPLFTHLAVRIGGRYVVAGKMSISPNTTYPSLLEDGRVEYRVALTEDRLPRLEEIRIWGPLQEDADIQVYRRYGEEYGNLTRPDITFTYFQPKPRQAWVWAAVRGPCSVSCGAGLRWVNYSCLDQARKELVETVQCQGSQQPPAWPEACVLEPCPPYWAVGDFGPCSASCGGGLRERPVRCVEAQGSLLKTLPPARCRAGAQQPAVALETCNPQPCPARWEVSEPSSCTSAGGAGLALENETCVPGADGLEAPVTEGPGSVDEKLPAPEPCVGMSCPPGWGHLDATSAGEKAPSPWGSIRTGAQAAHVWTPAAGSCSVSCGRGLMELRFLCMDSALRVPVQEELCGLASKPGSRREVCQAVPCPARWQYKLAACSVSCGRGVVRRILYCARAHGEDDGEEILLDTQCQGLPRPEPQEACSLEPCPPRWKVMSLGPCSASCGLGTARRSVACVQLDQGQDVEVDEAACAALVRPEASVPCLIADCTYRWHVGTWMECSVSCGDGIQRRRDTCLGPQAQAPVPADFCQHLPKPVTVRGCWAGPCVGQGTPSLVPHEEAAAPGRTTATPAGASLEWSQARGLLFSPAPQPRRLLPGPQENSVQSSACGRQHLEPTGTIDMRGPGQADCAVAIGRPLGEVVTLRVLESSLNCSAGDMLLLWGRLTWRKMCRKLLDMTFSSKTNTLVVRQRCGRPGGGVLLRYGSQLAPETFYRECDMQLFGPWGEIVSPSLSPATSNAGGCRLFINVAPHARIAIHALATNMGAGTEGANASYILIRDTHSLRTTAFHGQQVLYWESESSQAEMEFSEGFLKAQASLRGQYWTLQSWVPEMQDPQSWKGKEGT
**Q.** B1 was tested. Which “cleavage of VWF-A2 protein, immunoblot (16 kDa band)” value [1] did it give?
**A.** Healthy plasma (FIG. 2, lane 1), and partially isolated ADAMTS-13 (FIG. 2, lane 3) produced the expected band of 16 kDa

**Q.** What about the “cleavage of recombinant single-tagged VWF-A2 (16 kDa band)” value [1] of the same protein?
**A.** After one hour incubation, proteolysis by plasma from a healthy individual and the partially isolated enzyme produced the expected 16 kD band corresponding to the sequence 1481-1605 of SEQ ID NO:8 plus the 12 amino acid residues from the His-tag

**Q.** What about the “cleavage of double-tagged VWF-A2 peptide, ELISA (loss of Tag-100 signal)” value [2] of the same protein?
**A.** the specific cleavage activity by ADAMTS-13 on the VWF-A2 peptide was also demonstrated using three different dilutions of partially isolated ADAMTS-13 (275 µg/mL of total protein) (FIG. 5B)

**Q.** What about the “cleavage of double-tagged VWF-A2 peptide, immunoblot” value [2] of the same protein?
**A.** The cleavage of the double-tagged VWF-A2 peptide by ADAMTS-13 was efficiently detected by immunoblotting

From patent US20050186646
